Experimental data taken from patent US20120316071A1 (published 2012).

Columns and labels:
[1] = target: T1, Recombinant Human DLL4 (R&D Systems Cat#1506-D4/CF) (human, UniProt Q9NR61 27-524); assay: control in the Notch reporter assay; binding assay not described
T1 construct: bought recombinant protein; also called rHuman DLL4; delta-like protein 4

[2] = target: T2, rHuman IGF-1 sR, CF (R&D Systems Cat#391-GR) (human, UniProt P08069 31-932); assay: Multispot ECL
T2 construct: bought soluble receptor; also called insulin-like growth factor-1 soluble receptor

[3] = target: T1, Recombinant Human DLL4 (R&D Systems …); assay: Multispot ECL titration
[4] = target: T3, rHuman ErbB2/Fc Chimera, CF (R&D Systems Cat#1129-ER) (human, UniProt P04626 23-652); assay: Multispot ECL (MSD), antigen spotted on plate, Fab 580 nM; blank spot 679
T3 construct: Bought recombinant protein; also called human epidermal growth factor 2 receptor; Fc part of the bought chimera not given

[5] = target: T4, rHuman HGF R/c-MET/Fc Chimera, CF (R&D Systems Cat#358-MT/CF) (human, UniProt P08581 25-932); assay: as above
T4 construct: Bought recombinant protein; also called HGF R/Fc; hepatocyte growth factor receptor; Fc part of the bought chimera not given

[6] = target: T5, Recombinant Human DLL4 (R&D Systems Cat#1506-D4/CF) (human, UniProt Q9NR61 27-524); assay: as above
T5 construct: Bought recombinant protein; also called rHuman DLL4; delta-like protein 4

[7] = target: T6, rHuman EGF R/Fc Chimera, CF (R&D Systems Cat#344-ER) (human, UniProt P00533 25-645); assay: as above
T6 construct: Bought recombinant protein; also called epidermal growth factor receptor; Fc part of the bought chimera not given

[8] = target: T7, rHuman IGF-1 sR, (IGF-1 sR), CF (R&D Systems Cat#391-GR) (human, UniProt P08069 31-932); assay: as above
T7 construct: Bought recombinant soluble receptor; also called insulin-like growth factor-1 soluble receptor

[9] = target: T3, rHuman ErbB2/Fc Chimera, CF (R&D …); assay: Multispot ECL (MSD), antigen spotted on plate, Fab 36.3 nM; blank spot 314
[10] = target: T4, rHuman HGF R/c-MET/Fc Chimera, CF (R&D …); assay: as above
[11] = target: T5, Recombinant Human DLL4 (R&D Systems …); assay: as above
[12] = target: T6, rHuman EGF R/Fc Chimera, CF (R&D …); assay: as above
[13] = target: T7, rHuman IGF-1 sR, (IGF-1 sR), CF (R&D …); assay: as above
[14] = target: T3, rHuman ErbB2/Fc Chimera, CF (R&D …); assay: Multispot ECL (MSD), antigen spotted on plate, Fab 9.1 nM; blank spot 276
[15] = target: T4, rHuman HGF R/c-MET/Fc Chimera, CF (R&D …); assay: as above
[16] = target: T5, Recombinant Human DLL4 (R&D Systems …); assay: as above
[17] = target: T6, rHuman EGF R/Fc Chimera, CF (R&D …); assay: as above
[18] = target: T7, rHuman IGF-1 sR, (IGF-1 sR), CF (R&D …); assay: as above
[19] = target: T4, rHuman HGF R/c-MET/Fc Chimera, CF (R&D …); assay: Multispot ECL (MSD), antigen spotted on plate, Fab 145 nM; blank spot 357
[20] = target: T5, Recombinant Human DLL4 (R&D Systems …); assay: as above
[21] = target: T6, rHuman EGF R/Fc Chimera, CF (R&D …); assay: as above
[22] = target: T7, rHuman IGF-1 sR, (IGF-1 sR), CF (R&D …); assay: as above

T4 sequence (P08581 25-932, change not shown): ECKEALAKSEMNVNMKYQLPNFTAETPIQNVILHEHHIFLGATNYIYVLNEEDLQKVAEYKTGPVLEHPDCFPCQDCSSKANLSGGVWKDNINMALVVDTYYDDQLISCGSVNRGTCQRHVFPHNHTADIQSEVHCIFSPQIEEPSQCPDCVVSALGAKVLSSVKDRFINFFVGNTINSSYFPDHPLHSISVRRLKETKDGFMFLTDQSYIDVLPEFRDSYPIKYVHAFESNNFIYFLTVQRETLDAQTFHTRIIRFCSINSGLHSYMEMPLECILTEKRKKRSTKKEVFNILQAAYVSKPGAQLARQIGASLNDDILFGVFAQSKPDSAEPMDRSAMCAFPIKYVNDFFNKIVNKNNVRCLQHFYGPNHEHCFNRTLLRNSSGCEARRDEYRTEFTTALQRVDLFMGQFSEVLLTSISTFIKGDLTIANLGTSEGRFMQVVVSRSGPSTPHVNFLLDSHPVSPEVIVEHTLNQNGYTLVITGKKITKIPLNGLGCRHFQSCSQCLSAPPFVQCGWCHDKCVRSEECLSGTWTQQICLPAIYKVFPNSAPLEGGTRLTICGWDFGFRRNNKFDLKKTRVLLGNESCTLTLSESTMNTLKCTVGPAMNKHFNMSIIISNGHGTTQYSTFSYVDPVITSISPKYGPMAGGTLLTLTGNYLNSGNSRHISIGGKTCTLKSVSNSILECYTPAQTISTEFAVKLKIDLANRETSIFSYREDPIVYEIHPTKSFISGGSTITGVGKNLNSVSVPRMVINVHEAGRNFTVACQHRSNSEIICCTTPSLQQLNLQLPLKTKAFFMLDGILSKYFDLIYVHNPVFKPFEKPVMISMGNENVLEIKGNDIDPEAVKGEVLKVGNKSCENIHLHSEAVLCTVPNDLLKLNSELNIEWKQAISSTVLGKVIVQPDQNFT

B1: control Fab VH6-1_IGHD6-13*01_IGHJ4*01 and V2-17_IGLJ2*01 (Fab, V domains shown)
VH: QVQLQQSGPGLVKPSQTLSLTCAISGDSVSSNSAAWNWIRQSPSRGLEWLGRTYYRSKWYNDYAVSVKSRITINPDTSKNQFSLQLNSVTPEDTAVYYCAREGYSSSWYDYFDYWGQGTLVTVSS
VL: SYELTQPPSVSVSPGQTARITCSGDALPKQYAYWYQQKPGQAPVLVIYKDSERPSGIPERFSGSSSGTTVTLTISGVQAEDEADYYCQSADSSGTYPVVFGGGTKLTVL
binding result [1]: no binding

B2: Fab VH1-46_IGHD6-6*01_IGHJ1*01 S102A/S103P/S104F & L6_IGKJ1*01 (Fab, V domains shown)
VH: QVQLVQSGAEVKKPGASVKVSCKASGYTFTSYYMHWVRQAPGQGLEWMGIINPSGGSTSYAQKFQGRVTMTRDTSTSTVYMELSSLRSEDTAVYYCAREEYAPFSAEYFQHWGQGTLVTVSS
VL: not shown
notes: Fab; also called H:APF & L:wt; APF triple mutant
binding result [2]: no binding
fold binding affinity against the parent antibody [3]: 10 fold

B3: Fab VH4-34_IGHD7-27*01_IGHJ4*01 & V1-4_IGLJ4*01 (Fab, V domains shown)
VH: QVQLQQWGAGLLKPSETLSLTCAVYGGSFSGYYWSWIRQPPGKGLEWIGEINHSGSTNYNPSLKSRVTISVDTSKNQFSLKLSSVTAADTAVYYCARANWGDYFDYWGQGTLVTVSS
VL: QSALTQPASVSGSPGQSITISCTGTSSDVGGYNYVSWYQQHPGKAPKLMIYEVSNRPSGVSNRFSGSKSGNTASLTISGLQAEDEADYYCSSYTSSSTLFVFGGGTQLIIL
notes: Tested as a Fab made in E. coli; The heavy chain variable region was cloned into Plasmid A (CH1 constant region, His6 and Flag tags); The lambda light chain variable region was cloned into Plasmid E (lambda CL); Only the variable domains are tied to this Fab by name
ECL signal at 580 nM Fab [4]: 1710
ECL signal at 580 nM Fab [5]: 2340
ECL signal at 580 nM Fab [6]: 4420
ECL signal at 580 nM Fab [7]: 1630
ECL signal at 580 nM Fab [8]: 1360
ECL signal at 36.3 nM Fab [9]: 1030
ECL signal at 36.3 nM Fab [10]: 1060
ECL signal at 36.3 nM Fab [11]: 1400
ECL signal at 36.3 nM Fab [12]: 831
ECL signal at 36.3 nM Fab [13]: 799
ECL signal at 9.1 nM Fab [14]: 987
ECL signal at 9.1 nM Fab [15]: 894
ECL signal at 9.1 nM Fab [16]: 1030
ECL signal at 9.1 nM Fab [17]: 800
ECL signal at 9.1 nM Fab [18]: 788
ECL signal at 145 nM Fab [19]: 1170
ECL signal at 145 nM Fab [20]: 2140
ECL signal at 145 nM Fab [21]: 856
ECL signal at 145 nM Fab [22]: 794
